Target: the molecule itself

B1: recombinant Arabidopsis dehydrin LEA14 (AT2G21490) with carboxy-terminal hexahistidyl tag (natural protein)
chain: MADLRDEKGNPIHLTDTQGNPIVDLTDEHGNPMYLTGVVSSTPQHKESTTSDIAEHPTSTVGETHPAAAPAGAGAATAATATGVSAGTGATTTGQQHHGSLEEHLRRSGSSSSSSSEDDGQGGRRKKSIKEKIKEKFGSGKHKDEQTPATATTTGPATTDQPHEKKGILEKIKDKLPGHHNHNHP
Kd: 13.3 µM

B2: recombinant soybean dehydrin GmPM12 (Glyma.04G009900.1) with carboxy-terminal hexahistidyl tag (natural protein)
chain: MAEAQLRDQHGNPVPLTDQYGNPVILTDERGNPVQLTGVATTATGTAGSGFGSYGTGAYGGGASATTVADLLATQPRSGREARELRRSSSSSSSSSEDDGQGGRRKKGVKDKIKEKLPGVGGGNNNKEHAHTTTAPTTATNHPADQHEKKGIMERIKEKLPGHHTHLE
Kd: 6.8 µM

Source: paper PMC11612773 (2024)
